According to patent US20210401961A1:

Molecular target: HB-EGF receptor (UniProt Q99075)
Assay: cell-based or functional assay

Sequence of UniProt Q99075 (Q99075 63-148 limits assumed): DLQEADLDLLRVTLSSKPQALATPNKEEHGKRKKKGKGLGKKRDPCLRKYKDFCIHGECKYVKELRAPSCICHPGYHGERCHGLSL

With “CRM197-Alexa488 (from UniProt P00587 26-560)” as the substance, how does the labelling of OV90 tumor cells with CRM197-Alexa488 after 24 hours (flow cytometry, 10 µg/mL) read?
The labelling of OV90 tumor cells with CRM197-Alexa488 after 24 hours (flow cytometry, 10 µg/mL) was 98.2%.

What about the percentage of CRM197-Alexa488 uptake by OV90 tumor cells after 4 hours (flow cytometry, 10 µg/mL) of the same substance?
The percentage of CRM197-Alexa488 uptake by OV90 tumor cells after 4 hours (flow cytometry, 10 µg/mL) was 82%.

What about the percentage of OV90 tumor cells with CRM197-Alexa488 signal after 4 hours with trypan blue quenching (intracellular) of the same substance?
The percentage of OV90 tumor cells with CRM197-Alexa488 signal after 4 hours with trypan blue quenching (intracellular) was 72.7%.

What about the percentage of OV90 tumor cells with CRM197-Alexa488 signal after 24 hours with trypan blue quenching (intracellular) of the same substance?
The percentage of OV90 tumor cells with CRM197-Alexa488 signal after 24 hours with trypan blue quenching (intracellular) was 97.6%.
